Reference: US12356911B2, “Group of UDP-glycosyltransferase for catalyzing carbohydrate chain elongation and application thereof” (GSYNBIOT (SHANGHAI) CO., LTD, priority 2017, dated 2025)

Columns and labels:
Type in all cases: biochemical
[1] = In vitro transglycosylation at C-6, Rg1 as glycosyl acceptor, UDP-xylose as donor; settings: crude enzyme (E. coli lysate supernatant); TLC and HPLC, FIG. 7-9
[2] = In vitro transglycosylation at C-3, F2 as glycosyl acceptor, UDP-glucose as donor; settings: crude enzyme (E. coli lysate supernatant)
[3] = In vitro transglycosylation at C-3, Rh2 as glycosyl acceptor, UDP-glucose as donor; settings: crude enzyme (E. coli lysate supernatant); TLC, FIG. 13, FIG. 15
Description: (§1) Cell lysate of recombinant E. coli with empty vector pET28a was used as a control.

[4] = In vitro transglycosylation at C-20, Rd as glycosyl acceptor, UDP-xylose as donor; settings: crude enzyme (E. coli lysate supernatant); TLC and HPLC, FIG. 2, FIG. 4
[5] = In vitro transglycosylation at C-20, CK as glycosyl acceptor, UDP-glucose as donor; settings: crude enzyme (E. coli lysate supernatant); TLC/HPLC, FIG. 2, 3, 12, 16
Description: as §1
As shown in FIG. 16: Protopanaxadiol Ginsenoside CK is used as a glycosyl acceptor, and UDP-glucose is used as a glycosyl donor.

[6] = In vitro transglycosylation at C-20, Rd as glycosyl acceptor, UDP-glucose as donor; settings: crude enzyme (E. coli lysate supernatant); TLC/HPLC, FIG. 2, 3, 11
Description: as §1

[7] = In vitro transglycosylation at C-20, CK as glycosyl acceptor, UDP-arabinose as donor; settings: crude enzyme (E. coli lysate supernatant); TLC, FIG. 17
[8] = In vitro transglycosylation at C-20, F1 as glycosyl acceptor, UDP-glucose as donor; settings: crude enzyme (E. coli lysate supernatant); TLC and HPLC, FIG. 5, FIG. 6

Molecule	product formation from Rg1 and UDP-xylose (notoginsenoside R1) [1]	product formation from F2 and UDP-glucose (Rd) [2]	product formation from Rh2 and UDP-glucose (Rg3) [3]	product formation from Rd and UDP-xylose (one product with the mobility of Rb3) [4]	product formation from CK and UDP-glucose (Gypenoside LXXV) [5]	product formation from Rd and UDP-glucose (Rb1) [6]	product formation from CK and UDP-arabinose (Ginsenoside F3) [7]	product formation from F1 and UDP-glucose [8]
GT29-25: Ginseng UDP-glycosyltransferase, 446 amino acids, SEQ ID NO: 30 (protein, misc_feature - GT29-25; Panax ginseng) MDNQKGRISIVMLPFLAHGHISPFFELAKHLSKRNCNIFLCSTPINLSSIKNRISDKDSSASIKLVELHLPSSPDLPPHYHTTNGLPSHLMVPLRNAFETAAPTFSEILKTLNPDLLIYDFNPSWAPEIASSHNIPAVCFIIGGAASFSMSLHSFKNPGEKYPFLDFDDNSNITPEPPSADNMKLLLDFMTCFERSCDIILIKSFRELEGKYFDFYSTLSDKTLVPVGPLVQDPMGHNEDPKTEQFINWLDKRAESTVVFVCFGSEYFLSNEELEEVAIGLEISMVNFIWAVRLIEGEKKGVLPEGFVQRVGDRGLVVEGWAPQARILGHSSTGGFVSHCGWSSITESMKFGVPVIAMARHFDQPLNAKLAAEVGVGTEVVRDENGKYKREDIAGVIRKVVVEKSGEVIRRKARELSEKMKEIGEQLIDRAVEELVQICKKKKDEQ	can catalyze the formation of Notoginsenoside RI	can further catalyze the extension of a glucosyl at the C-3 glycosyl of F2 to produce ginsenoside Rd	catalyze the production of ginsenoside Rg3					
GT29-24: Ginseng UDP-glycosyltransferase, 446 amino acids, SEQ ID NO: 28 (protein, misc_feature - GT29-24; Panax ginseng) MDNQKGRISIVMLPFLAHGHISPFFELAKHLSKRNCNIFLCSTPINLSSIKNRISDKDSSASIKLVELHLPSSPDLPPHYHTTNGLPSHLMVPLRNAFETAAPTFSEILKTLNPDLLIYDFNPSWAPEIASSHNIPAVCFIIGGAASFSMSLHSFKNPGEKYPFLDFDDNSNITPEPPSADNMKLLLDFMTCFERSCDIILIKSFRELEGKYFDFYSTLSDKTLVPVGPLVQDPMGHNEDPKTEQFINWLDKRAESTVVFVCFGSEYFLSNEELEEVAIGLEISMVNFIWAVRLIEGEKKGVLPEGFVQRVGDRGLVVEGWAPQARILGHSSTGGFVSHCGWSSITESMKFGVPVIAMARHFDQPLNAKLAAEVGVGMEVVRDENGKYKREGIAEVIRKVVVEKSGEVMRRKARELSEKMKEKGEEEIDRAVEELVQICKKKKDAQ	can catalyze the formation of Notoginsenoside RI	can further catalyze the extension of a glucosyl at the C-3 glycosyl of F2 to produce ginsenoside Rd	catalyze the production of ginsenoside Rg3					
GT29-32: Ginseng UDP-glycosyltransferase, 442 amino acids, SEQ ID NO: 4 (protein, misc_feature - GT29-32; Panax ginseng) MDNQEGRISIALLPFLAHGHISPFFELAKQLAKRNCNVFLCSTPINLSSIKNKDSSASIKLVELHLPSSPDLPPHYHTTNGLPSHLMVPLRNAFETAAPTFSEILKTLNPDLLIYDFNPSWAPEIASSHNIPAVYFLTSAAATSSMGLHAFKNSGEKYPFPDFYDNSNITPEPPSADKMKLFHDFVACFKRSCDIILIKSFRELEGKYIDFLSTLSKKTLVPVGPLVQDPMGHDEDPKTGHLINWLDKRAESTVVFVCFGSEYFPSNEELEELAIGLEISMVSFILAVRFPEGEKKGILPEGFVQRVGDRGLVVEGWAPQARILGHSSTGGFVSHCGWSSIMESVKFGVPVIAMARHLDQPLNAKLAAEVGVGMEVMRDENGKYKREAIAEVIRKVVMEKNGEVMRRKARELSEKMKEIGEQLIDRAVEELVQICKKKKDEQ				can catalyze Rd to produce three products	can catalyze the formation of a new product	can catalyze the formation of Rb1	can catalyze the first glycosyl of C-20 of CK to extend an arabinosyl to generate Ginsenoside F3	can catalyze the formation of a new product
GT29-34: Ginseng UDP-glycosyltransferase, 446 amino acids, SEQ ID NO: 8 (protein, misc_feature - GT29-34; Panax ginseng) MDIEKGRIIIVMLPFLAHGHISPFFELAKHLSKRNCNIFLCSTPINLSSIKNRVSDKDSSASIKLVELHLPSSPDLPPHYHTTNGLPSHLMVPLRNAFETAAPTFSEILKTLNPDLLIYDFNPSWAPEIASSHNIPAVYFLTSAAATSSMGLHAFKNSGEKYPFPDFYDNSNITPEPPSADKMKLFHDFVACFKRSCDIILIKSFRELEGKYIDFLSTLSKKTLVPVGPLVQDPMGHDEDPKTGHLINWLDKRAESTVVFVCFGSEYFPSNEELEELAIGLEISMVSFILAVRFPEGEKKGILPEGFVQRVGDRGLVVEGWAPQARILGHSSTGGFVSHCGWSSIMESVKFGVPVIAMARHLDQPLNAKLAAEVGVGMEVMRDENGKYKREGIAEVIRKVVVEKSGEVMRRKARELSEKMKEKGEEEIDRAVEELVQICKKKKDAQ					can catalyze the formation of a new product	can catalyze the formation of Rb1	can catalyze the first glycosyl of C-20 of CK to extend an arabinosyl to generate Ginsenoside F3	
